This is an account of results in the supplement of paper PMC12764529.

Series [1] in a line: folding stability dG unfold from trypsin proteolysis; higher = more stable. An outline of the steps:
(§1)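 K50 was inferred by Bayesian fitting of sequencing counts obtained after protease digestion of designed mini-proteins. Unfolding free energy was derived by comparison with a sequence-predicted unfolded-state K50 and a shared folded-state K50, for each protease or both combined. The mini-proteins were under 80 residues, had no cysteine, were carried in a PA-tagged cDNA display construct, and were kept only if AlphaFold2 dimer inter-PAE exceeded 15.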

Series [2] is described as follows: folding stability dG unfold from chymotrypsin proteolysis; higher = more stable. An outline of the steps:
as §1

Series [3] can be described thus: folding stability dG unfold (combined trypsin and chymotrypsin); higher = more stable. An outline of the steps:
as §1

± gives the half width of the 95% confidence interval.

“SAGKFPFMIKIEDKDGKPKDEIPIPAEELQDDPEKFLEIVETIADEFSKDGYRVKIYFPGTGQPIEIPISAG [r14_972_TrROS]”: the “folding stability dG unfold” value amounted to 0.418 ± 0.2 kcal/mol in series [1], 1.32 ± 0.15 kcal/mol in series [2] and 0.859 ± 0.2 kcal/mol in series [3].
For “SAGKIEFPMPNGYWFRIEIDPENNKVKVEYSPHNGQYKVKIPGKEEVQIPIKGMPFEEMAKEIIEKLLKSAG [r5_447_TrROS]” the same measures were 0.776 ± 0.17 kcal/mol, 1.13 ± 0.19 kcal/mol and 0.962 ± 0.4 kcal/mol.
For “SAGKIIKFKTKANENASITVPEENKILKIKVYKPNGTLLDEYEVEVKPNKTLVLNIPDDNLYVVVEPIPSAG [r5_797_TrMRF]” the same measures were 0.56 ± 0.025 kcal/mol, 1.17 ± 0.1 kcal/mol and 0.975 ± 0.057 kcal/mol.
In the case of “SAGKIKIDVMPPGWFLRIKIEHGGKEQERMIPIPGDSVDEIVKEALDEIQQHFPNKPIKVDIEIYPVDDSAG [r5_180_TrROS]”, the “folding stability dG unfold” value worked out at 1.03 ± 0.2 kcal/mol in series [1], 1.29 ± 0.37 kcal/mol in series [2] and 0.874 ± 0.37 kcal/mol in series [3].
For “SAGKIKIPPGQEIWIIVNVEWQPDPDNGEPRYTVTVMKIKIKADPNGGLKIESIETKIVPAEDLKDNGLSAG [r5_340_TrROS]”, in that order: 1.84 ± 0.036 kcal/mol, 3.6 ± 0.078 kcal/mol and 3.06 ± 0.14 kcal/mol.
For “SAGKIPPGEEQKKKIKLGGKEIKIKMWTYKNPDGQPHMMFRVEYDGEPGIFNPDSGRPMTPDDIKKMLKSAG [r5_138_TrROS]”, in that order: 0.0292 ± 0.19 kcal/mol, 1.24 ± 0.35 kcal/mol and 0.788 ± 0.26 kcal/mol.
For “SAGKITINVMMNPDGNYYVKIRIGGDGEPIMEFPVDSPEDAEEKAKAFADNLAKKYPNYKIEVDYMPFDSAG [r5_383_TrROS]”, in that order: 4.23 ± 0.32 kcal/mol, 3.06 ± 0.066 kcal/mol and 3.64 ± 0.12 kcal/mol.
For the sequence “SAGKIVIDKDNMKVYVTLPNGKKIELSLEELKKLLEELKKEGKPLTAEEIAEKLKKEFPGAEVEIVPVSAGG [r19_46_TrROS_Hall]”, the figures for the “folding stability dG unfold” value in series [1], in series [2] and in series [3] were 2.38 ± 0.086 kcal/mol, 4.01 ± 0.064 kcal/mol and 3.69 ± 0.083 kcal/mol, respectively.
For “SAGKKIEIDMSLEELKKLPGIKKVEVKNGKVYLEVDGKKIEITIRPPKPVLEFKEGMSEEEKKELLKKLSAG [r5_2_TrROS_Hall]” the same measures were 0.911 ± 0.093 kcal/mol, 1.11 ± 0.1 kcal/mol and 1.22 ± 0.21 kcal/mol.
For “SAGKKIHITLTEDELREIAEALGLEPEDMTAEELAARLREEFPDVEVTIEKPPVEEREREERELAEEEKSAG [r5_264_TrROS_Hall]” the same measures were 1.76 ± 0.064 kcal/mol, 0.984 ± 0.068 kcal/mol and 1.3 ± 0.14 kcal/mol.
For “SAGKKIKIVKVEVTYDPETKEVTVKITIYNENGEKIKEIELTYEPGMSEEEVREKAEALVRKLIEEGKLSAG [r5_238_TrROS_Hall]”, in that order: 2.75 ± 0.15 kcal/mol, 2.24 ± 0.05 kcal/mol and 2.54 ± 0.1 kcal/mol.
Turning to “SAGKKKEEEKKKKEEKKKKEYYLVKVKIKNPNGEEKEIVLKAKSLEEAKKALEKLGLKVEIVEIKPIKVSAG [r5_233_TrROS_Hall]”, the “folding stability dG unfold” value in series [1] was 1.7 ± 0.11 kcal/mol; in series [2], 3.03 ± 0.11 kcal/mol; in series [3] it was 2.71 ± 0.17 kcal/mol.
Consider “SAGKKKIKIEIVKVEKNENGETIIRVKVKLEDGSEKEITINLDDLKNGNLKNMTAEEIAKLFPNIEIESAGG [r19_74_TrROS_Hall]”, for which the “folding stability dG unfold” value in series [1] was found to be 2.35 ± 0.062 kcal/mol; in series [2], 1.58 ± 0.084 kcal/mol; in series [3], 1.88 ± 0.18 kcal/mol.
For “SAGKKKKEVKKITLVIEFPEEMTEEELKERAEKLAEELKKKFPKIKKIEVKVEKKDGKLIVTVEIEIEKSAG [r5_446_TrROS_Hall]”, in that order: 2.02 ± 0.064 kcal/mol, 1.78 ± 0.079 kcal/mol and 1.88 ± 0.15 kcal/mol.
For “SAGKKKKIKVKIEIRVKKKYKTKDGKEVEEKEETITVEIEMTLEELKEAIKKLPENVEITKITKIEKESAGG [r19_114_TrROS_Hall]” the same measures were 1.58 ± 0.11 kcal/mol, 2.42 ± 0.058 kcal/mol and 2.26 ± 0.16 kcal/mol.
With “SAGKKKKKPKVKEVIIVVKVENMTAEEIAKKLAEELNVEVTKVEVKDGYVTITLKDGSKIKIEVIPEEKSAG [r5_350_TrROS_Hall]”, the “folding stability dG unfold” value in series [1] was determined as 1.35 ± 0.11 kcal/mol; in series [2], 1.76 ± 0.069 kcal/mol; in series [3], 1.58 ± 0.15 kcal/mol.
For “SAGKKKTLTLTLGNVTITITYDEDTGTLRIKVTATVTTVTLDKDTKELTTEKKTVTTEIEIPLAPGATLSAG [r5_195_TrROS_Hall]” the same measures were 2.76 ± 0.18 kcal/mol, 2.79 ± 0.086 kcal/mol and 2.67 ± 0.2 kcal/mol.
For “SAGKKLIEAAKNNKKAVIPVKYKKYKITEKYKTKDGGTKYKAKLIEEKTYNVKLIKVDPKTGKIIIDPKSAG [r5_5_TrMRF]”, in that order: 1.07 ± 0.13 kcal/mol, 1.82 ± 0.28 kcal/mol and 1.75 ± 0.92 kcal/mol.
For “SAGKKLKITDPEYKYYPNEGMYWVTIPIRFPDGKPIFDIDYPMPPGQSWDQVREQAKDIARWLIEEGLISAG [r5_238_TrROS]”, in that order: 0.639 ± 0.059 kcal/mol, 1.93 ± 0.13 kcal/mol and 1.52 ± 0.095 kcal/mol.
As to “SAGKKLLVVVEIRVFDKDGKLVREERLVIEVPEEDEEALRRLLEEARRLAEALLPPGARVEIRVRVLPPSAG [r5_793_TrROS_Hall]”, the results for the “folding stability dG unfold” value in series [1], in series [2] and in series [3] were 2.98 ± 0.13 kcal/mol, 3.82 ± 0.11 kcal/mol and 3.6 ± 0.15 kcal/mol, respectively.
For “SAGKKTITVEIVVENLTEEEIEEKIREKLKEAGLKVEVVKVEIVKVEEVDGKKYLVVKVEIKIEPEEESAGG [r19_325_TrROS_Hall]” the same measures were 3.5 ± 0.18 kcal/mol, 2.87 ± 0.084 kcal/mol and 3.06 ± 0.12 kcal/mol.
For “SAGKKTITVPLKDLKKVLEELKKKYPNIKKVKIYVNGKEYEIKVGEKVKITEVIKNENGEEFVKIEIYKSAG [r5_130_TrROS_Hall]”, in that order: 2.97 ± 0.17 kcal/mol, 3.41 ± 0.082 kcal/mol and 3.31 ± 0.22 kcal/mol.
As for “SAGKKTLIIRVKIRVRRKVDGKEEEVELELVIEVEAEEDEEEARRKAEELARKLAEEYNLEIEEVEIFPSAG [r5_497_TrROS_Hall]”, the figures for the “folding stability dG unfold” value in series [1], in series [2] and in series [3] were 4.18 ± 0.13 kcal/mol, 4.31 ± 0.074 kcal/mol and 4.26 ± 0.11 kcal/mol, respectively.
For “SAGKKYIVVVNVDFGSPEKKESAPIVLELDEDEEVSEALAKIPGLEDVKVEVYVIEAEENPELAENPGSAGG [r19_339_TrMRF]” the same measures were 0.31 ± 0.11 kcal/mol, 1.38 ± 0.083 kcal/mol and 0.994 ± 0.2 kcal/mol.
For “SAGKMKIIEVKPGEEIKITIPEEGKKVKIYVYNKNGEKVEEKEVEIKPGQTLTFKIPKEDAKVIIEIEDSAG [r5_797_TrROS_Hall]”, in that order: 1.75 ± 0.062 kcal/mol, 3.11 ± 0.039 kcal/mol and 2.82 ± 0.18 kcal/mol.
For “SAGKNWYIQIQIEHRDPDGKPKREIPIIIEANPGDPEAFERALEFAERIAEKLHPPGHRVEINVTLFPYSAG [r5_793_TrROS]” the same measures were 2.73 ± 0.23 kcal/mol, 2.17 ± 0.1 kcal/mol and 2.43 ± 0.17 kcal/mol.
For “SAGKPGEPIKLKIRYVDPDNGEPQTFEFPIKRIEDVEIDPPGNIIITFPGDGQEITFPPNHLTEVEILSAGG [r19_416_TrROS]”, the “folding stability dG unfold” value in series [1] was -0.852 ± 0.73 kcal/mol; in series [2] it was 0.36 ± 0.24 kcal/mol; in series [3], 0.0637 ± 0.18 kcal/mol.
For “SAGKPIIVKVSVINEDGEEEEIAEFPIPPDLLKGSIEVGDGFIIAPDGEGPTFTAIIGDKPVKIEIEGSAGG [r19_408_TrMRF]”, in that order: 0.658 ± 0.058 kcal/mol, 1.52 ± 0.13 kcal/mol and 1.27 ± 0.13 kcal/mol.
For the sequence “SAGKPKELAKKIAEKLAKEFEKKHPDVKIEKVEVKKIEVNPIEGYVKIDIVMYGKNGKLIYKPKITIKSAGG [r19_53_TrMRF]”, the “folding stability dG unfold” value was 3.22 ± 0.27 kcal/mol in series [1], 3.96 ± 0.083 kcal/mol in series [2] and 3.63 ± 0.14 kcal/mol in series [3].
For “SAGKPNIVVHPEYEQEKDPGDPGQPRIREMRVRVYLPNGRPITFRYRSPEDAVDRLLKRIQENPDLLKSAGG [r19_123_TrROS]” the same measures were 1.79 ± 0.12 kcal/mol, 2.11 ± 0.13 kcal/mol and 2.07 ± 0.19 kcal/mol.
As for “SAGKPVLLKIEIEVKVNGKTVKLELEILVEPGETIEELLAALPGVEEVKIKIEPISLEELEELKKKKPSAGG [r19_339_TrROS_Hall]”, the “folding stability dG unfold” value amounted to 0.867 ± 0.23 kcal/mol in series [1], 1.88 ± 0.059 kcal/mol in series [2] and 1.53 ± 0.3 kcal/mol in series [3].
Consider “SAGKRTIMIPFNVKPNQIRNIAKDIVEMHPGWKIKSIKVFNPNNGEPQELPLGDVPPNEPVWIKVEIEPSAG [r5_357_TrROS]”, for which the “folding stability dG unfold” value in series [1] came to 2.36 ± 0.1 kcal/mol; in series [2] it was 2.21 ± 0.05 kcal/mol; in series [3], 2.29 ± 0.15 kcal/mol.
With “SAGKSVKLSISVNPDNNSITITLEVEFKPDEKINIPAKFYLKDKEFNANYSVTKTPDGKAIATFTIELDSAG [r5_596_TrMRF]”, the “folding stability dG unfold” value in series [1] was determined as 2.67 ± 0.27 kcal/mol; in series [2], 4.57 ± 0.23 kcal/mol; in series [3], 3.63 ± 0.38 kcal/mol.
For “SAGKVEIIPIENEDGSKFLVIKVNGKLIIITENEDGSISIKIIDLKTNKIEVIEIPKKDLKKALEKILKSAG [r5_674_TrROS_Hall]”, in that order: 3.82 ± 0.18 kcal/mol, 3.48 ± 0.12 kcal/mol and 3.59 ± 0.2 kcal/mol.
For “SAGKVIIIPAEKAEPELIKEILKKVPEGTEIRIAFAGPELVELLKELGFEVKPELVKPLTPEDLKKLLESAG [r5_354_TrMRF]” the same measures were 0.747 ± 0.062 kcal/mol, 1.92 ± 0.092 kcal/mol and 1.59 ± 0.11 kcal/mol.
For “SAGKVVKISAPIEVLRNIPNVLELYVVGDKVYLVVPNELLVVDLDLPPLVPTVPESVPEELALLGGLLGSAG [r5_2_TrMRF]”, in that order: 0.728 ± 0.051 kcal/mol, 1.74 ± 0.052 kcal/mol and 1.48 ± 0.13 kcal/mol.
